From patent US20240376226A1

biological target: neutravidin (UniProt P02701); test: phage ELISA, neutravidin alone
Sequence (P02701 25-152): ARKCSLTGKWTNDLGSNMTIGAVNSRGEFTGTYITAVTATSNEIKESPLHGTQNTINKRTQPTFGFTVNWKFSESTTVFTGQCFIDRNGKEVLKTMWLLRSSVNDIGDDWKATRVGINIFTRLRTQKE

First: GGLGCNDIDPGEQCIV (peptide, not shown: large carriers) [Phage clone J465D07 displaying Peptide-23]
Second: GGLECFDPEIPEAFCI (peptide, not shown: large carriers) [Phage clone J466C07 displaying Peptide-24]
The NAv bkgd of the first is higher: 0.055 for the first, 0.053 for the second.

Compared with GGQGCGTIADPEPHCW (peptide, not shown: large carriers) [Phage clone J466C02 displaying Peptide-25], GGNCHDPDIPAYVLCS (peptide, not shown: large carriers) [Phage clone J479B08 displaying Peptide-26] is higher in NAv bkgd: 0.061 for the first, 0.084 for the second.

Compared with GGLCPINDWEPQDICW (peptide, not shown: large carriers) [Phage clone J467F08 displaying Peptide-27], GGLCMIGDWLPGDVCL (peptide, not shown: large carriers) [Phage clone J467D04 displaying Peptide-28] is lower in NAv bkgd: 0.062 for the first, 0.058 for the second.

Compared with GGDSVCADPEVPICEI (peptide, not shown: large carriers) [Phage clone J476C07 displaying Peptide-19], GGMSDCGDPGVEICTH (peptide, not shown: large carriers) [Phage clone J457A04 displaying Peptide-20] is higher in NAv bkgd: 0.051 for the first, 0.092 for the second.

First: GGIQCHDPDLPSPCYI (peptide, not shown: large carriers) [Phage clone J465E03 displaying Peptide-21]
Second: GGEWCLFDPDVPTCQD (peptide, not shown: large carriers) [Phage clone J465F09 displaying Peptide-22]
The NAv bkgd of the first is higher: 0.052 for the first, 0.051 for the second.
